PMC11974786 (bioRxiv, 2025)

Experiments:
[1] = target: OptS from Klebsiella pneumoniae strain KP67 (Klebsiella pneumoniae strain KP67); experiment: SEC
[2] = target: OptS from Klebsiella pneumoniae strain KP67 (Klebsiella pneumoniae strain KP67); experiment: SEC; remark: listed apart in the source
[3] = target: OptS from Klebsiella pneumoniae strain KP67 (Klebsiella pneumoniae strain KP67); experiment: crystal structure
KpOptS = target: T1, KpOptS (Klebsiella pneumoniae, UniProt A0A2G9LI54); experiment: HPLC and LC-MS product analysis; type: biochemical; conditions: 100 μM OptS, 1 mM MnCl2, 10 mM MgSO4, pH 7.4, 100 mM NaCl
T1 sequence (A0A2G9LI54 1-119): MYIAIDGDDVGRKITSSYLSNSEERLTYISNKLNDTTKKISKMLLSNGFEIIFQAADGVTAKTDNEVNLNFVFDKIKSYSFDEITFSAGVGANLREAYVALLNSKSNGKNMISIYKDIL

Compound: OptS from Klebsiella pneumoniae strain KP67 (enzyme)
- stoichiometry N [1]: 4
- stoichiometry N [2]: > 3
- stoichiometry N [3]: 4

Compound: Nc1ncnc2c1ncn2[C@@H]1O[C@H](COP(=O)(O)OP(=O)(O)OP(=O)(O)O)[C@@H](O)[C@H]1O [ATP]
- HPLC and LC-MS product analysis (KpOptS): The largest abundance product observed was derived from ATP
